# Measured values: the supplement of paper PMC10724198
# ± gives the standard deviation of the averaged measurements.
# System: Saccharomyces cerevisiae
# Assay: protein stability index of tFT-peptide fusion (C-terminal peptide) (PSI (0-1 scale)); higher = more stable (slower turnover)
# Details: genetic background: wild type; temperature: 30 C
# Method: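 Multiplexed protein stability (MPS) profiling in S. cerevisiae. Random 12-aa peptides (tFT-X12 library) are fused to the C-terminus of a sfGFP-mCherry tandem fluorescent timer, after mCherry and a GGGS linker. Cells are FACS-sorted into 8 mCherry/sfGFP bins and deep-sequenced. The protein stability index (PSI) is the read-weighted bin average, scaled from 0 (unstable) to 1 (stable). Only peptides with >10 reads are reported; cells were grown at 30 °C in SC-His with glucose.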
# 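Note: PSI is a weighted mean of sequencing reads over stability bins, variants kept only with over 10 reads, mCherry proximal and sfGFP distal, peptide attached via GGGS linker.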
row,Sequence,protein stability index
1,ETKEAKKKTIDS,0.7217 ± 0.0065
2,ETLEKYGDPMRD,0.624 ± 0.0088
3,ETSRTYGNFPIT,0.774 ± 0.11
4,EVCTFPGSIRSS,0.521 ± 0.023
5,EVGHLILYKIGC,0.648 ± 0.017
6,EVGLGAAGLSGP,0.749 ± 0.031
7,EVGVRCRVGVWV,0.567 ± 0.029
8,EVIRFMEKLPFR,0.589 ± 0.025
9,EVYTWTGNMWNI,0.673 ± 0.095
10,EWGAGGGVWGLG,0.7684 ± 0.0069
11,EWMIHQFCRVPV,0.62 ± 0.0097
12,EWVTRQFEGWEG,0.7474 ± 0.0021
13,EYFLGPLVRLGR,0.762 ± 0.11
14,EYRTAIYFQSLL,0.701 ± 0.076
15,FAALACKSRLEF,0.685 ± 0.03
16,FAFQAHWGCRDF,0.703 ± 0.053
17,FAHSPPPHLSVR,0.624 ± 0.014
18,FAISPCVSLAFF,0.642 ± 0.05
19,FALSSLTFPLPT,0.744 ± 0.094
20,FALWAGGTWFRT,0.656 ± 0.013
21,FARLTSSQGGKD,0.68 ± 0.025
22,FAVLGGGGGGGW,0.711 ± 0.0097
23,FCAVRYLVEGRV,0.533 ± 0.0064
24,FCIDSLNSFCFV,0.643 ± 0.057
25,FCLSIFYRAFFD,0.537 ± 0.024

row,Sequence,protein stability index
1,FCLSVVELRGLM,0.672 ± 0.049
2,FCRTSGSVGDHV,0.721 ± 0.017
3,FCYVEDLSVSVD,0.611 ± 0.0068
4,FDNPFQATTATK,0.823 ± 0.16
5,FDVYIKVRGGDI,0.64 ± 0.024
6,FEDIPSMEYRSI,0.702 ± 0.05
7,FEHFKCRRRPVI,0.723 ± 0.044
8,FETGPGSCTACA,0.68 ± 0.0099
9,FFFECPCWLGVF,0.542 ± 0.019
10,FFGGAGVTEGLG,0.683 ± 0.043
11,FFLLLCSSCFGV,0.583 ± 0.021
12,FFNFVYYFTTPR,0.635 ± 0.019
13,FFPFFLSFSPPF,0.708 ± 0.023
14,FFPLPPSSPPSP,0.7184 ± 0.0069
15,FFPPAHFAPQPA,0.719 ± 0.015
16,FFPPLLSFPPTD,0.7189 ± 0.0044
17,FFPRVLRLRYPS,0.754 ± 0.085
18,FFPSFVLSFPCL,0.641 ± 0.069
19,FFSPFSPALYTS,0.756 ± 0.014
20,FFVLGRGVCLGA,0.649 ± 0.066
21,FFYGLHSHCAIP,0.717 ± 0.081
22,FGAGLTACPVSV,0.517 ± 0.036
23,FGAHVGWHEASP,0.705 ± 0.018
24,FGDPRRTDPLRL,0.631 ± 0.04
25,FGFWCGWFAALP,0.689 ± 0.0094

row,Sequence,protein stability index
1,FGGRGRVASRLV,0.763 ± 0.086
2,FGIDVRPRPSQS,0.698 ± 0.12
3,FGRWVVVYRGLD,0.625 ± 0.037
4,FGSPFPASRFTT,0.752 ± 0.082
5,FGVDGVGVVVGY,0.669 ± 0.0086
6,FGVGGRWVVPGA,0.733 ± 0.016
7,FGVRTLTFISRT,0.637 ± 0.0081
8,FGWFDIKDSTNS,0.7177 ± 0.0048
9,FHARVEKQFMVM,0.489 ± 0.031
10,FHMPRSSPFLTG,0.74 ± 0.054
11,FIGWFSLMSCSV,0.604 ± 0.026
12,FISPSPLPPYSP,0.665 ± 0.059
13,FITLHGLLSRPC,0.626 ± 0.077
14,FITRPYKNIKNR,0.702 ± 0.031
15,FKRPQFFSAFFP,0.612 ± 0.011
16,FKVARGVHCGEG,0.6662 ± 0.0037
17,FLFCSYHSPLSF,0.7 ± 0.036
18,FLFLSFLSSSPS,0.745 ± 0.0088
19,FLFLYIPFSPPR,0.62 ± 0.02
20,FLFSDLVCSSVF,0.704 ± 0.027
21,FLGAELRRLGSL,0.703 ± 0.071
22,FLHLGGEWGVEG,0.683 ± 0.041
23,FLHLTSSTPLSR,0.794 ± 0.17
24,FLHPPPSALVLP,0.726 ± 0.03
25,FLHSERTLCFIS,0.537 ± 0.052

row,Sequence,protein stability index
1,FLLFLSSAPPAT,0.655 ± 0.0084
2,FLLHHVSRSPSA,0.692 ± 0.014
3,FLLPRFDSAFPL,0.684 ± 0.031
4,FLLVLPLSGLIV,0.528 ± 0.016
5,FLPHPSPDPLPP,0.588 ± 0.12
6,FLPPYSLPTPPF,0.699 ± 0.03
7,FLRLGLLQTFSP,0.677 ± 0.04
8,FLRPALACDVYN,0.737 ± 0.05
9,FLSLSLFPFSSL,0.698 ± 0.024
10,FLSRLGLVGWWG,0.643 ± 0.036
11,FLSTGIGKGVFL,0.694 ± 0.035
12,FLTAGRLYDGRV,0.6489 ± 0.0032
13,FLVEPSGRSATW,0.741 ± 0.16
14,FLWAPRWFCVGH,0.651 ± 0.041
15,FMFELSPVDEWA,0.791 ± 0.043
16,FMVIRVGGWGVL,0.646 ± 0.094
17,FPAPFLRVSPLW,0.644 ± 0.048
18,FPASLDAVTRPP,0.722 ± 0.011
19,FPASPQAPPPLP,0.65377 ± 0.00019
20,FPATLPPSYSLI,0.643 ± 0.017
21,FPCRSPKLYPPL,0.655 ± 0.011
22,FPDTRSLPLPPG,0.687 ± 0.011
23,FPFSDFVFLFCF,0.57 ± 0.011
24,FPLPLCHSPAPP,0.606 ± 0.027
25,FPLPPLPPVPPP,0.632 ± 0.059

row,Sequence,protein stability index
1,FPPPLPLSPPPP,0.746 ± 0.085
2,FPRLYHPNIKLP,0.716 ± 0.13
3,FPVTAPPRPFLF,0.639 ± 0.014
4,FPWFYPNHLEVP,0.698 ± 0.063
5,FQAPGGEIMSPS,0.647 ± 0.012
6,FQPPARATFLPV,0.668 ± 0.031
7,FRCGLDFRWYVI,0.62 ± 0.012
8,FRCSLLGGYTLE,0.737 ± 0.092
9,FRFSSTGRSFVS,0.6917 ± 0.0029
10,FRGPRSFRGVVW,0.757 ± 0.08
11,FRICSLTLSLSI,0.5517 ± 0.0048
12,FRISWLRVKGRG,0.676 ± 0.035
13,FRKTDYMVHNGI,0.664 ± 0.015
14,FRLNSYQNGSRV,0.682 ± 0.043
15,FRLQQGCSRHVG,0.671 ± 0.015
16,FRPCLRCLVSPF,0.6358 ± 0.0063
17,FRPLWLPSGSAC,0.611 ± 0.019
18,FRRCLCSLSLTS,0.631 ± 0.012
19,FRRLCRPVWSAR,0.6749 ± 0.0038
20,FRYLAVSPFGGL,0.749 ± 0.057
21,FSAPLPPARSPS,0.798 ± 0.11
22,FSAPPPPSPPLS,0.721 ± 0.053
23,FSASSSLSPFPL,0.707 ± 0.052
24,FSFCQLSLASFP,0.571 ± 0.01
25,FSFPAPRGLLWV,0.547 ± 0.027

row,Sequence,protein stability index
1,FSGSSCSSPFCF,0.632 ± 0.033
2,FSKTYTIMLITI,0.538 ± 0.0077
3,FSLLCGPGLRGF,0.72 ± 0.02
4,FSPGYPMAFSLR,0.74 ± 0.0075
5,FSPLLQSPLLAP,0.692 ± 0.0089
6,FSQLVQPSSFTS,0.7176 ± 0.004
7,FSRGRAVRVRRT,0.728 ± 0.21
8,FSSLFLSLLCPP,0.727 ± 0.073
9,FSSYDLISFVLV,0.538 ± 0.0099
10,FTISHWFSGDGE,0.705 ± 0.015
11,FTPLFSPVLLLP,0.72 ± 0.12
12,FTSPNGVRVCFH,0.843 ± 0.02
13,FVAGVGPLWGRR,0.661 ± 0.031
14,FVALCHCVRISR,0.697 ± 0.013
15,FVGCVNIFLSWG,0.51 ± 0.019
16,FVGSSFELRLPG,0.692 ± 0.057
17,FVGWVAMGGSVV,0.731 ± 0.024
18,FVLPSPRPPSMT,0.704 ± 0.0078
19,FVVGTFGHRRGR,0.694 ± 0.019
20,FWEGETVPTSEP,0.788 ± 0.045
21,FWEIRSGSNHRH,0.713 ± 0.028
22,FWGVAPSDRVSK,0.697 ± 0.0078
23,FWVGGGVFGVRV,0.747 ± 0.015
24,FYAGELSCRHQT,0.694 ± 0.025
25,FYGLPSVVCGWF,0.671 ± 0.025

row,Sequence,protein stability index
1,GAFKSRAGGGSG,0.621 ± 0.093
2,GAGGARRLAVGQ,0.655 ± 0.014
3,GAGGVWVRAWGP,0.768 ± 0.095
4,GAGLLRLWEVGG,0.733 ± 0.049
5,GAIRLSLMLLPQ,0.686 ± 0.042
6,GALVGFPAFFLL,0.654 ± 0.011
7,GALVLWTGCTYS,0.726 ± 0.0033
8,GAPTRSYGERKR,0.647 ± 0.0097
9,GARRLGLMVFDG,0.669 ± 0.066
10,GARRSAVPWSPK,0.723 ± 0.018
11,GASGGRIGEGEE,0.679 ± 0.011
12,GASSLGVNGGSV,0.6954 ± 0.0021
13,GAVAAVPRGGIL,0.715 ± 0.018
14,GAVHLNSLPVTK,0.6983 ± 0.0044
15,GAVSRRALPRRP,0.709 ± 0.016
16,GAVSVVFGWTDV,0.672 ± 0.021
17,GAVWAWRRLKGG,0.619 ± 0.035
18,GCASAAMFPEEL,0.691 ± 0.053
19,GCCGGRLWEGGG,0.707 ± 0.013
20,GCCWGCRIGEAV,0.6557 ± 0.0052
21,GCEGGGRVGSWT,0.742 ± 0.028
22,GCEGGWLGEGIG,0.593 ± 0.014
23,GCFLSERLFTPL,0.7304 ± 0.00085
24,GCGAMGWAVPAA,0.655 ± 0.041
25,GCGEGVGASVGR,0.641 ± 0.011

row,Sequence,protein stability index
1,GCGGLCQGGGGW,0.704 ± 0.084
2,GCGGVEAVGGVC,0.586 ± 0.025
3,GCLLVVAGGGRG,0.698 ± 0.069
4,GCLPGGKRESRG,0.647 ± 0.11
5,GCLRLCYQHWSP,0.6764 ± 0.005
6,GCRDQKLGVGVD,0.759 ± 0.064
7,GCRGEGGWVGRG,0.6955 ± 0.0029
8,GCRGWRSVGRGR,0.644 ± 0.025
9,GCRLVEGAVRLE,0.686 ± 0.048
10,GCRSQRSDSLMM,0.644 ± 0.028
11,GCSLWAVRTWGL,0.699 ± 0.01
12,GCSPTLMVSFIA,0.572 ± 0.037
13,GCVGGGWRHVGV,0.725 ± 0.059
14,GCVGGWCGGSGA,0.698 ± 0.083
15,GCWAGLGAPGVS,0.71 ± 0.027
16,GCWGAGESTLGG,0.724 ± 0.0084
17,GCWGEWGWVGRG,0.696 ± 0.035
18,GCWVNFLLTHFF,0.527 ± 0.024
19,GDASLSSLHIRL,0.642 ± 0.02
20,GDCIDCFKLVGI,0.711 ± 0.035
21,GDEDVSWLVFMG,0.762 ± 0.024
